According to US8257758B2, “Process for the extraction, purification and enzymatic modification of soy 7S globulin alpha' subunit for use as hypocholesterolemizing agent” (Indena S.p.A., priority 2002, dated 2012):

Experiments:
[1] = tested on: rats fed with hypercholesterolemic diet; assay: Total cholesterol and triglycerids plasma levels in rats fed with hypercholesterolemic diet, 28 day oral treatment; assay type: in vivo, rat; settings: for Total cholesterol / Total triglycerids: plasma, male CD rats, hypercholesterolemic diet, oral 28 days, after 16 hour fasting
Method: Male rats CD SPF/VAF, weighing 75-100 g, were used. The animals were housed in makrolon cages (4-5 animals per cage) in environment with automatic control of light (12 hour light/12 hour darkness cycles), temperature (21±1° C.) and humidity (60±5%).
After 7 day housing, the animals were randomly divided into seven groups of 20 rats each (Table 2). During 28 days, one group was fed with normal diet (cod. 014RF25C; Mucedola S.r.l., Settimo Milanese, MI, Italy), whereas the others were fed with hypercholesterolemic diet consisting of 1% cholesterol, 0.5% cholic acid and 25% hydrogenated coconut oil (batch 332000, preparation Jan. 9, 2000; Laboratorio Dottori Piccioni, Gessate, MI, Italy), with access to water ad libitum. The diet was given daily (40 g, 09.00 a.m.) and the unconsumed amount was weighed. Treatment was carried out as follows.
Total cholesterol and triglycerids plasma levels were measured at the end of the 28 day treatment and after 16 hour fasting. […] After centrifugation for 15 min at 4° C. at 3000 rpm, plasma was recovered, frozen and stored at −20° C. until measurements.
Total cholesterol and triglycerids plasma concentrations (reported in Table 2) were determined according to conventional enzymatic assays.

LDL receptor = settings: hepatic cell line; Lovati et al. 1992, 1996; Manzoni et al. 1998; cited from earlier work

| Molecule | Total cholesterol ([1]; dose 200 mg/kg) [mg/dL] | Total triglycerids ([1]; dose 200 mg/kg) [mg/dL] | effect on cholesterol and total triglycerids plasma levels (in words) ([1]; administration to rats, table 2) | Total cholesterol ([1]; dose 10 mg/kg) [mg/dL] | Total triglycerids ([1]; dose 10 mg/kg) [mg/dL] | LDL receptor activity (in words) (LDL receptor) |
| --- | --- | --- | --- | --- | --- | --- |
| CCOC(=O)C(C)(C)Oc1ccc(Cl)cc1 [clofibrate, reference compound] | 191.2 ± 8.0 | 139.1 ± 5.8 | – | – | – | – |
| α' subunit: soy β-conglycinin α′ subunit purified by Metal Affinity Chromatography under denaturant conditions (protein, UniProt P11827 63-621, looked up) Beta-conglycinin alpha' …: VEEEEECEEGQIPRPRPQHPERERQQHGEKEEDEGEQPRPFPFPRPRQPHQEEEHEQKEEHEWHRKEEKHGGKGSEEEQDEREHPRPHQPHQKEEEKHEWQHKQEKHQGKESEEEEEDQDEDEEQDKESQESEGSESQREPRRHKNKNPFHFNSKRFQTLFKNQYGHVRVLQRFNKRSQQLQNLRDYRILEFNSKPNTLLLPHHADADYLIVILNGTAILTLVNNDDRDSYNLQSGDALRVPAGTTYYVVNPDNDENLRMITLAIPVNKPGRFESFFLSSTQAQQSYLQGFSKNILEASYDTKFEEINKVLFGREEGQQQGEERLQESVIVEISKKQIRELSKHAKSSSRKTISSEDKPFNLRSRDPIYSNKLGKLFEITPEKNPQLRDLDVFLSVVDMNEGALFLPHFNSKAIVVLVINEGEANIELVGIKEQQQRQQQEEQPLEVRKYRAELSEQDIFVIPAGYPVVVNATSDLNFFAFGINAENNQRNFLAGSKDNVISQIPSQVQELAFPGSAKDIENLIKSQSESYFVDAQPQQKEEGNKGRKGPLSSILRAFY | – | – | remarkably decreasing | 182.2 ± 12.1 | 150.1 ± 9.8 | capable of activating LDL receptor |
